Legend:
[1] = target: RPL38 (human, UniProt P63173 1-70); assay: co-IP with anti-FLAG, C-FLAG B3GNT2, mass spectrometry
[2] = target: T1, SBSN (human, UniProt Q6UWP8 26-590); assay: as above
T1 construct: also called NP_00159506.1 (+2)
T1 sequence (looked up): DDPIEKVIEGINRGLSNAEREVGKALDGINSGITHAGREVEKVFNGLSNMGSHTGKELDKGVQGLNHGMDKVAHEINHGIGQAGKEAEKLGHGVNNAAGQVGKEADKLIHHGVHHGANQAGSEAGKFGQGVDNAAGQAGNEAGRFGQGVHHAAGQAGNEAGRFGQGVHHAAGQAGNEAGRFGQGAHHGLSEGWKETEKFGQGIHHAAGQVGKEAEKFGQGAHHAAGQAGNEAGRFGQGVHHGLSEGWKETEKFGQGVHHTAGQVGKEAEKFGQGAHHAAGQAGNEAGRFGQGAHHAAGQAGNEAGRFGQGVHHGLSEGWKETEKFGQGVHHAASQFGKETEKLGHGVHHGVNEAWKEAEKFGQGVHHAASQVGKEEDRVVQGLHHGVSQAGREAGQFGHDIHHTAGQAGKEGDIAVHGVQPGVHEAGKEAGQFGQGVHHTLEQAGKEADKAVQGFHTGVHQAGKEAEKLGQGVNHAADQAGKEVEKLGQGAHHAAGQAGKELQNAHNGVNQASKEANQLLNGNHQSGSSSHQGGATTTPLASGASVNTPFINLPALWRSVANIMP

[3] = target: T2, UBAP2L (human, UniProt Q14157 1-1087); assay: co-IP, anti-FLAG, lysate of cells with C-FLAG B3GNT2; mass spectrometry
T2 construct: also called NP_055662.3 (+3)
T2 sequence (looked up): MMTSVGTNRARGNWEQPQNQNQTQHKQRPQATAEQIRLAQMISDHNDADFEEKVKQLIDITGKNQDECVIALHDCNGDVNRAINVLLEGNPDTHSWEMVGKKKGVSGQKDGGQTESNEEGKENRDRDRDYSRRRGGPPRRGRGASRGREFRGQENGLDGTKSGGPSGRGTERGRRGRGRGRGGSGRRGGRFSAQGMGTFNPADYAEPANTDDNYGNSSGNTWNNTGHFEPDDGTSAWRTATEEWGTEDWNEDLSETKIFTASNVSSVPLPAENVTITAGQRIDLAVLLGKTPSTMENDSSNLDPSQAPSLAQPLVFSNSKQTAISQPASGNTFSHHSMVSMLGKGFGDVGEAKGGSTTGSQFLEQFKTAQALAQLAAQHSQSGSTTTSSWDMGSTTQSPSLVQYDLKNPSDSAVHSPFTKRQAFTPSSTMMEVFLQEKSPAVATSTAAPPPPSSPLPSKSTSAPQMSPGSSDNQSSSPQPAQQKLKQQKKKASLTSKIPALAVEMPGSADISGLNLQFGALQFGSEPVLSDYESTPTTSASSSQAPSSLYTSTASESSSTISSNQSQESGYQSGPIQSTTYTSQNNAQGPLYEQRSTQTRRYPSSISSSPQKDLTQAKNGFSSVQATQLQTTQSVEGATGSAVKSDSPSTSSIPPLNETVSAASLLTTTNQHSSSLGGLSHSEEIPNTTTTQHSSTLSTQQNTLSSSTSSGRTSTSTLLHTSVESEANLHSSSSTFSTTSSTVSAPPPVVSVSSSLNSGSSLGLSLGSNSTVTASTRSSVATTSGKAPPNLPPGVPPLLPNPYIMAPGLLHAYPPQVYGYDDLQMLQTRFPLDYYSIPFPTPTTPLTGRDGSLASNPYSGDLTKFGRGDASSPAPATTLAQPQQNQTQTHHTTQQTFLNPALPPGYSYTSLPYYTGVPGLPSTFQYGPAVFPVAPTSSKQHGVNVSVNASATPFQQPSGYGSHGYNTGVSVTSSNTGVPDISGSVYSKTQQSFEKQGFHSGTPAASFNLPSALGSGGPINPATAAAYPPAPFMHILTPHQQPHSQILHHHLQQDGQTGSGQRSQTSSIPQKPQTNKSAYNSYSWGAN
Description: Cells were plated in 10-cm cell culture dishes and grown to 60-80% confluency. For each condition, two biological replicates were harvested for co-IP. Cells were washed with PBS and 4 mL of lysis buffer (20 mM HEPES, 1% Triton X-100, 150 mM NaCl, 1 mM EDTA, and 10% glycerol) containing protease inhibitor cocktail was added. Cells were scraped and lysate was incubated at 4° C. under rotary agitation for 1 h. Lysate was centrifuged at 14,000×g for 10 min at 4° C. Supernatant was transferred to a new tube and an aliquot was taken as the input. […] For Western blots, 10 μg/mL Chicken Anti-FLAG (Aves labs ET-DY100) and IgY control (R&D Systems AB-101-C) antibodies were biotinylated (Thermo Fisher Scientific 90407) and added to the respective conditions. Lysates with antibodies were incubated at 4° C. under rotary agitation overnight. For each mL of lysate, 50 μL of Pierce Protein A/G Magnetic Beads (Mass spectrometry; Thermo Fisher Scientific 88803) or Pierce Streptavidin Magnetic Beads (Western blot; Thermo Fisher Scientific 88817) was washed twice with lysis buffer. Lysates with antibodies were added to the beads and incubated at 4° C. under rotary agitation for 4 h. Beads were washed with lysis buffer 3 times and resuspended in lysis buffer for storage.
Magnetic beads were resuspended in 100 mM Tris pH 7.8, reduced, alkylated and digested with trypsin at 37° ° C. overnight. This solution was subjected to solid phase extraction to concentrate the peptides and remove unwanted reagents followed by injection onto a Shimadzu HPLC with fraction collector. Eight fractions were collected and after concentration were injected on a Waters NanoAcquity HPLC equipped with a self-packed Aeris 3 μm C18 analytical column 0.075 mm by 20 cm, (Phenomenex). Peptides were eluted using standard reverse-phase gradients. The effluent from the column was analyzed using a Thermo Orbitrap Elite mass spectrometer (nanospray configuration) operated in a data dependent manner for 54 minutes. The resulting fragmentation spectra were correlated against the known database using Proteome Discover 1.4 (Thermo Fisher Scientific).

B1: C-terminal FLAG tagged B3GNT2 (enzyme, human, UniProt Q9NY97 1-397, looked up)
chain: MSVGRRRIKLLGILMMANVFIYFIMEVSKSSSQEKNGKGEVIIPKEKFWKISTPPEAYWNREQEKLNRQYNPILSMLTNQTGEAGRLSNISHLNYCEPDLRVTSVVTGFNNLPDRFKDFLLYLRCRNYSLLIDQPDKCAKKPFLLLAIKSLTPHFARRQAIRESWGQESNAGNQTVVRVFLLGQTPPEDNHPDLSDMLKFESEKHQDILMWNYRDTFFNLSLKEVLFLRWVSTSCPDTEFVFKGDDDVFVNTHHILNYLNSLSKTKAKDLFIGDVIHNAGPHRDKKLKYYIPEVVYSGLYPPYAGGGGFLYSGHLALRLYHITDQVHLYPIDDVYTGMCLQKLGLVPEKHKGFRTFDIEEKNKNNICSYVDLMLVHSRKPQEMIDIWSQLQSAHLKC
notes: FLAG-tagged ORF overexpressed in cells; pulled down from lysate with mouse anti-FLAG; also called C-FLAG B3GNT2; C-term flag; not shown: C-terminal FLAG tag
With B1 the “co-IP mass spectrometry count” value [1] was 8.

B2: C-terminal FLAG tagged B3GNT2 (enzyme, human, UniProt Q9NY97 1-397, looked up)
chain: MSVGRRRIKLLGILMMANVFIYFIMEVSKSSSQEKNGKGEVIIPKEKFWKISTPPEAYWNREQEKLNRQYNPILSMLTNQTGEAGRLSNISHLNYCEPDLRVTSVVTGFNNLPDRFKDFLLYLRCRNYSLLIDQPDKCAKKPFLLLAIKSLTPHFARRQAIRESWGQESNAGNQTVVRVFLLGQTPPEDNHPDLSDMLKFESEKHQDILMWNYRDTFFNLSLKEVLFLRWVSTSCPDTEFVFKGDDDVFVNTHHILNYLNSLSKTKAKDLFIGDVIHNAGPHRDKKLKYYIPEVVYSGLYPPYAGGGGFLYSGHLALRLYHITDQVHLYPIDDVYTGMCLQKLGLVPEKHKGFRTFDIEEKNKNNICSYVDLMLVHSRKPQEMIDIWSQLQSAHLKC
notes: FLAG-tagged ORF overexpressed in A375 cells; pulled down from the lysate with mouse anti-FLAG; also called C-FLAG B3GNT2; C-term flag; not shown: C-terminal FLAG tag
For B2, the “co-IP/MS count, C-term flag” value [2] was 25.

B3: C-terminal FLAG tagged B3GNT2 (enzyme, human, UniProt Q9NY97 1-397, looked up)
chain: MSVGRRRIKLLGILMMANVFIYFIMEVSKSSSQEKNGKGEVIIPKEKFWKISTPPEAYWNREQEKLNRQYNPILSMLTNQTGEAGRLSNISHLNYCEPDLRVTSVVTGFNNLPDRFKDFLLYLRCRNYSLLIDQPDKCAKKPFLLLAIKSLTPHFARRQAIRESWGQESNAGNQTVVRVFLLGQTPPEDNHPDLSDMLKFESEKHQDILMWNYRDTFFNLSLKEVLFLRWVSTSCPDTEFVFKGDDDVFVNTHHILNYLNSLSKTKAKDLFIGDVIHNAGPHRDKKLKYYIPEVVYSGLYPPYAGGGGFLYSGHLALRLYHITDQVHLYPIDDVYTGMCLQKLGLVPEKHKGFRTFDIEEKNKNNICSYVDLMLVHSRKPQEMIDIWSQLQSAHLKC
notes: Overexpressed in cells and pulled down from the lysate with mouse anti-FLAG antibody; also called C-FLAG B3GNT2; C-term flag; not shown: C-terminal FLAG tag
With B3 the “co-IP mass spectrometry count” value [3] was 19.
